This data set deals with Polα-primase, recombinant (Insect PP) (Homo sapiens, UniProt P09884;Q14181;P49642;P49643 1-1462;1-598;1-420;1-509). The experiment in a line: EMSA; Kd,app similar to CST-Polα-primase, value only in figure; complex dissociates during electrophoresis; CST EMSA: 20 mM HEPES-NaOH pH 8.0, 150 mM NaCl, 2 mM MgCl2, 0.2 mM EGTA, 0.1% NP-40, 10% glycerol, 1 mM DTT, 2 h on ice, 0.7% agarose 1x TBE gel at 4 °C; POT1-TPP1N EMSA: C-strand synthesis buffer, 30 min at 30 °C. The settings on record: protein: recombinant; copies: 1;1;1;1; label: 5'-32P; folds into G-quadruplex in KCl and NaCl, not LiCl.
Sequence of Polα-primase, recombinant (Insect PP) (P09884 whole entry, chain 1 of 4): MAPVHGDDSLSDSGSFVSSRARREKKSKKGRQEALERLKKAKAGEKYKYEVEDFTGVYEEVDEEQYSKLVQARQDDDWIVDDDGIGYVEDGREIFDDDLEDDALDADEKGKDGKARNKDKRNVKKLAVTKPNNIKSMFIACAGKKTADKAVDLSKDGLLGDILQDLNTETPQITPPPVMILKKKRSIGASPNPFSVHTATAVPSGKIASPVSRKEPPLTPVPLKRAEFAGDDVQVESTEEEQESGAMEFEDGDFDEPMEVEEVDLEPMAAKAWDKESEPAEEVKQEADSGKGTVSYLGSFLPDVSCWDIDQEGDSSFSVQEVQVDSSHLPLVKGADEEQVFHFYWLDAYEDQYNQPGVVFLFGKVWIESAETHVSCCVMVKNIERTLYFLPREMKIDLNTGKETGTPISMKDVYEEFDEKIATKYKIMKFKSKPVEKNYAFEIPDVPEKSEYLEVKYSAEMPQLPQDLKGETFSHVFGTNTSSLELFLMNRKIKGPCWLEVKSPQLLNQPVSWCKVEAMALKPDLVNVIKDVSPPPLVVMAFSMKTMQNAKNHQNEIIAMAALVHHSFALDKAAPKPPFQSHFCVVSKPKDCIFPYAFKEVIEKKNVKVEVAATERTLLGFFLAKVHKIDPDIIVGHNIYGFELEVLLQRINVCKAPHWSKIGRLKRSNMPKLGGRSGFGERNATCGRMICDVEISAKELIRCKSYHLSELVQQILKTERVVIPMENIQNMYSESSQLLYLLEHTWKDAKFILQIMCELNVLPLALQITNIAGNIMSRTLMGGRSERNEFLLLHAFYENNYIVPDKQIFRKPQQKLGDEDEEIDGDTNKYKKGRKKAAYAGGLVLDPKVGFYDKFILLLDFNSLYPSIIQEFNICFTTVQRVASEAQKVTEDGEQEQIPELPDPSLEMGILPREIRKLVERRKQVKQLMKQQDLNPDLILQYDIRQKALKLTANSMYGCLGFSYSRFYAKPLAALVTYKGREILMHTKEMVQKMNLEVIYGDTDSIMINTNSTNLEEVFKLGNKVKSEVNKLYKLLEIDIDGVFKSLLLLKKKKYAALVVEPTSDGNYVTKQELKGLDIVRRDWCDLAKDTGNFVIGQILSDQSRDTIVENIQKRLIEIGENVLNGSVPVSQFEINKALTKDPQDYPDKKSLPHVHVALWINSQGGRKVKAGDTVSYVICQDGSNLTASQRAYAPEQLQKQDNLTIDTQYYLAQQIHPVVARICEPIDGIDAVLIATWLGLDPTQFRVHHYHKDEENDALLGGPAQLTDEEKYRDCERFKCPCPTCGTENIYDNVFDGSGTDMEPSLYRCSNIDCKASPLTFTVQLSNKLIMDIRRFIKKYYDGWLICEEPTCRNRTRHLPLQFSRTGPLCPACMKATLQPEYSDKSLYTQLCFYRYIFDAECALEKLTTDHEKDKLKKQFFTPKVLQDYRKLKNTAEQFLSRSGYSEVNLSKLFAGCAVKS
Sequence of Polα-primase, recombinant (Insect PP) (Q14181 whole entry, chain 2 of 4): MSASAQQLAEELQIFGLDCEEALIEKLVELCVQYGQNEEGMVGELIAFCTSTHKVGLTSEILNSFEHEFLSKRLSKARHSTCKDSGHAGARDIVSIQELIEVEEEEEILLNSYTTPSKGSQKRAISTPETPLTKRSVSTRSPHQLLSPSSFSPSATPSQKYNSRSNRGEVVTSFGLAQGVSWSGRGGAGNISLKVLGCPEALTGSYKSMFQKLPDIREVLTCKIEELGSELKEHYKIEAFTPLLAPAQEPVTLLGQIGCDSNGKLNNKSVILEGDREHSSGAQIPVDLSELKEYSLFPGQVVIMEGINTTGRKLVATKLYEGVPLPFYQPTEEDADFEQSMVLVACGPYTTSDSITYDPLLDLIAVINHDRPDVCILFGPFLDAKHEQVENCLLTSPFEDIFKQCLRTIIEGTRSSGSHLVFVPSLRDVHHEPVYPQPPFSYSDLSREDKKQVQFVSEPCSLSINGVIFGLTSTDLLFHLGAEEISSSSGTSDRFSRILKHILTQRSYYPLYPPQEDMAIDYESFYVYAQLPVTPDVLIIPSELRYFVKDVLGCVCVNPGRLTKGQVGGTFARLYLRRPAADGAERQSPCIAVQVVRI
Sequence of Polα-primase, recombinant (Insect PP) (P49642 whole entry, chain 3 of 4): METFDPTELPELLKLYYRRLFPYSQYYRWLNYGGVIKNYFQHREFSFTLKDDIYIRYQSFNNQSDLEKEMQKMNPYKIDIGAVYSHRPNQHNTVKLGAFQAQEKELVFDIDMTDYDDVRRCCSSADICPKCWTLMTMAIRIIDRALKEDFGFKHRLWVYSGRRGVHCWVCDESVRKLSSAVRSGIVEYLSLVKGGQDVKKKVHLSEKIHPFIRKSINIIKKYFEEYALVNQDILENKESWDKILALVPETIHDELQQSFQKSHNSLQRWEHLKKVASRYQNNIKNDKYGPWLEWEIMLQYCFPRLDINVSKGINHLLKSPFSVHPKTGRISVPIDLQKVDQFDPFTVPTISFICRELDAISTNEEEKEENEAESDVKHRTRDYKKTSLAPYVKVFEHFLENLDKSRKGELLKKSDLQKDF
Sequence of Polα-primase, recombinant (Insect PP) (P49643 whole entry, chain 4 of 4): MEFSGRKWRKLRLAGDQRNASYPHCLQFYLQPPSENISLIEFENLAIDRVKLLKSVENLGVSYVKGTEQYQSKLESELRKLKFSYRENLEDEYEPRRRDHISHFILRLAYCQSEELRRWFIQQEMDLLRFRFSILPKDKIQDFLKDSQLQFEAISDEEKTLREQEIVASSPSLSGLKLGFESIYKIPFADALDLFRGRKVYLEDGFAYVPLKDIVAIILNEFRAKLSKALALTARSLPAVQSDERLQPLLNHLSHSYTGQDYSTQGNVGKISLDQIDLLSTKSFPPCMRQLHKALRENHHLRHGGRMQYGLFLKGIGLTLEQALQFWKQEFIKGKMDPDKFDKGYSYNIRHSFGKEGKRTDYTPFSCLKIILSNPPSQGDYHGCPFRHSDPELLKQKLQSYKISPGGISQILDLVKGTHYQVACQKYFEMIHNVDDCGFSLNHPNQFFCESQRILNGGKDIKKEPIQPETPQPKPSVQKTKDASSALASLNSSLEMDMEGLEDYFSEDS

B1: 9xTEL (ssDNA)
DNA: TTAGGGTTAGGGTTAGGGTTAGGGTTAGGGTTAGGGTTAGGGTTAGGGTTAGGG
For the molecule B1, the binding result is listed as “binds”.
